Source: the nanobody polyreactivity screen of Harvey et al. (2022)

Assay: yeast display, Sf9 membrane polyspecificity reagent, FACS + sequencing; frameworks hold sequencing errors
How it was run: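 Synthetic nanobody libraries on Saccharomyces cerevisiae BJ5465 were galactose-induced for 36–48 hours, stained 1 hour at 4 °C with 10% biotinylated, detergent-solubilized Sf9 membrane reagent and enriched on streptavidin microbeads. FACS then separated cells into low and high (top ~1%) gates by anti-HA (expression) and streptavidin (reagent binding) fluorescence. Genes were colony-PCR amplified, MiSeq 2 × 250 sequenced and CDR-length filtered. A clone's polyreactivity label is that of its gate of origin.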

Sequence | polyreactivity (PSR sort gate)
QVQLVESGGGLVQGGGSLRLSCAASGSIFSTYVMGWYRQGPGKERELVAAISRRGGSTYYADSVKGRFTISRDNAKNTVYLQMNSLNPADTAVYYCAADGTVGRRDYWGQGTQVTVSS | high polyreactivity
QVQLVESGVGLVQAGGRLRLSCAASGRIIYIYAMGWYRQAPGKERELVAAITASSGSTNYADSVKGRFTISRDNAKNTVYLQMNSLKPEDTAVYYCSAAPSRTLLRQTKYYYWGQGTQVTVSS | low polyreactivity
QVQLVESGGGLVQAGGSLRLSCAASGFTFFVYGMGWYRQAPGKERELVATINWSGASTYYADSVKGRFTISRDNAKNTVYLQMNSLKPEDTAVYSCAKDGHYPLVYLAFDYWGQGTQVTVSS | low polyreactivity
QVQLVESGGGLVQAGGSLSLSCAASGSIFLRNAMGWYRQAPGKERELVAAITWDSGDTYYADSVKGRFTISRDHAKNTVYLQMNSLKPEDTAVYYCNTLGLSSDWGQGTQVTVSS | low polyreactivity
QVQLVESGGGLVQAGGSLRLSCAASGFIFPWYTRGWYRQAPGKERELVAVINQSGGSTYYADSVKGRFTISRDNAKNTVYLQMNSLKPEDTAVYYCAAKSYRGSVKLRWSERGYWGQGTQVTVSS | high polyreactivity
QVQLVESGGGLVQAGGSLRLSCAASGSTFGNYAMGWYRQAPGKERELVATISRSGGSTYYADSVQGRFTISRDIAKNTVNLQMNSLKPEDTAVYYCNRRYYTRKPDYNSWGQGTQVTVSS | high polyreactivity
QVQLVESGGGLVQAGGSLRLSSAASGRTFYVNAMGWYRQAPGKERELVAAITRSSGSTHYADSVKGRFTISRDNAKNTVYLQMNSLKPEDTAVYYCAADSTYRKYYYWGQGTQVTVSS | high polyreactivity
QVQLVESGGGLVQAGGSLRLSCAASGRIFSSYAKGWYRQAPGKERELVAAISRGGGRTYYADSVKGRFTISRDNAKNTVYLQMNSLKPEDTAVYYCATVGRSAAYAFDYWGQGTQVTVSS | high polyreactivity
QVQLVESGRGLVQAGGSLRLSCAASGRIFVSNVMGWYRQAPGKERELVATITIGGITYYADSVKGRFTISRDNAKNTVYLQMNSLKPEDTAVYYCAADRRRFSPYGLYIHPGFDYWGQGTQVTVSS | low polyreactivity
QVQLVESGGGLVQAGGSLRLICAASGSTFLGYAMGWYRQAPGKERELVAAITYSAGSTYYADSVKGRFTISRDNAKNTVYLQMNSLKPEDTAVYYCAKRYSGYDHWGQGTQVTVSS | low polyreactivity
QVQLVESGAGIVQAGGSLRLSCAASGLTFANYVMGGYRQAPGKERELVAAISRSGGSTYYADSVKGRFTISRDNAKKTVNLQMNCLKPEDTAVYYCAAAAWDPKGSRYDSWGQGTQVSVSS | low polyreactivity
QVQLVESGGGLVQAGGSLRLSCAASGFTFPYNAMGWYRQAPGKERELVAAISRGGGRTYYADSVKGRFTISRDNAKNTVYLQMNSLKPEDTAVYYCAKAPGQDTPYPYGYWGQGTQVTVSS | high polyreactivity
QVQLVESGGGLVQAGGSLRLSCAASGRIFGPYAMGWYRQAPGKEREWVAAISYSGGRTRYADSVKGRFTISRDNAKNTVYLQMNSLKPEDTAVYYCNRVIPTQSLRDYYWGQGTQVTVSS | high polyreactivity
QVQLVESGGGLVQAGGSLRLSCAASGSIFYWYAMGWYRQAPGKERELVAAITRSAGTTYYADSVKGRITISRDNAKNTVYLQMNSLKPEDTAVYYCAATYPRPYGSRPRYEYWGQGTQVTVSS | high polyreactivity
QVQLVESGGGLVQAGGSLRLSCAASGFIFRWYTMGWYRQAPGKERELVAAISSSGGTTYYADSVKGRFTISRDNAKNTVYLQMNSLKPEDTAVYYCTTRYPLGGTYTRYPLKGDYWGQGTQVTVSS | high polyreactivity
QVHLVETGGGLVQEGGSLRLSCAATGSNFGQNAMGWYRQAPGKERELVAAITRRGVATYYADSVKGRFTISRDNAKNTVYLQLISLKPEDTAVYYCAKRYHPNSPYDYWGQGTQVTVSS | low polyreactivity
QVQLVESGGGLVQAGGSLRLSCAASGSTFVTYTMGWYRQAPGKEREFVATISRSGCSTYYADSVKGRFTISRDNAKNTVYLQMNSLKPEDTAVYYCAAVRLVISKYWYIPYDYWGQGTQVTVSS | low polyreactivity
